Experimental findings from publication PMC2270309, “Insights into Mad2 Regulation in the Spindle Checkpoint Revealed by the Crystal Structure of the Symmetric Mad2 Dimer” (PLoS Biology, 2008) are described below.

Data set [1] addresses His6-O-Mad2^ΔN10 (human). Nature of the data set: SEC; gel filtration of the high-salt peak (Q2) of anion exchange chromatography (holds the C-Mad2 conformer). (In general: In gel filtration, larger molecules generally elute earlier.)
Data set [2] concerns the molecule itself. The description is as above.
Data set [3] concerns the molecule itself. Nature of the data set: AUC; sedimentation equilibrium at 4 °C; 0.23, 0.36 and 0.50 mg/ml; 20 mM Tris pH 8.0, 50 mM NaCl, 0.2 mM TCEP; 13,000, 17,500 and 25,000 rpm; global fit to a monomer-dimer equilibrium; dimer to monomers.
For data set [4], the target named is Human Cdc20 (human, UniProt Q12834 1-499). Nature of the data set: cell-based or functional assay.
Sequence of Human Cdc20 (Q12834 whole entry): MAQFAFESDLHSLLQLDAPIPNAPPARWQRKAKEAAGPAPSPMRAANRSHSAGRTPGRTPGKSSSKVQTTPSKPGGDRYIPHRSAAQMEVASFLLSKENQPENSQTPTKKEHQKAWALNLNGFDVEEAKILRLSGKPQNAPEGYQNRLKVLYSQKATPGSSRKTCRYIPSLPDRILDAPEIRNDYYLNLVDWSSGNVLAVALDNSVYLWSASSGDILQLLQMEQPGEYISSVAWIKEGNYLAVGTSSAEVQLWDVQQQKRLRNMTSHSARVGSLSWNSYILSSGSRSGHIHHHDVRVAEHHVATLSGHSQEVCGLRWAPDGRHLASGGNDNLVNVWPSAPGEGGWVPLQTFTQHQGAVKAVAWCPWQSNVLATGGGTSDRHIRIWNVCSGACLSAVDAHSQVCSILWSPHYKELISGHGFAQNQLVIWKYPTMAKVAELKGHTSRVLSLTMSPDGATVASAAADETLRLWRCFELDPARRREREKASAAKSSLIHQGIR
Data set [5] concerns the target Mad2^R133A (human, UniProt Q13257 1-205, R133A). Nature of the data set: ITC.
Data set [6] has as its target Mad2^Y156A (in the background of R133A) (human, UniProt Q13257 1-205, Y156A | R133A). Nature of the data set: ITC.
In data set [7] the target is Mad2^L153A (in the background of R133A) (human, UniProt Q13257 1-205, L153A | R133A). Nature of the data set: ITC. On the technique in general: ITC needs no label: the signal is the heat of the interaction.
Data set [8] concerns the target Mad2^L13A,R133A double mutant (human, UniProt Q13257 1-205, L13A | R133A). Nature of the data set: ITC.

With “untagged C-Mad2^ΔN10 (domain or fragment)”, the stoichiometry N in data set [1] was 1.

B1: Mad2^L13A,C79S,C106S triple mutant (natural protein, human, UniProt Q13257 1-205, looked up)
chain: MALQLSREQGITARGSAEIVAEFFSFGINSILYQRGIYPSETFTRVQKYGLTLLVTTDLELIKYLNNVVEQLKDWLYKSSVQKLVVVISNIESGEVLERWQFDIESDKTAKDDSAPREKSQKAIQDEIRSVIRQITATVTFLPLLEVSCSFDLLIYTDKDLVVPEKWEESGPQFITNSEEVRLRSFTTTIHKVNSMVAYKIPVND
notes: Mad2, human, coding region (205 residues), with L13A, C79S and C106S; also called Mad2^L13A dimer; symmetric C–C Mad2 dimer; source: E. coli BL21 (pGEX), purified (glutathione-Sepharose, TEV cleavage, anion exchange, gel filtration)
In the case of B1, the “stoichiometry N” value in data set [2] amounted to 2. Further, in data set [3], binding was characterised by a dissociation constant (Kd) of 250 nM and the “stoichiometry N” value was roughly 2. For the same molecule, the “inhibition of APC/C^Cdc20 in an in vitro reconstituted APC/C ubiquitination assay (Myc-cyclin B1); Mad2 dimers at 1–16 μM preincubated with Cdc20 for 30 min” value in data set [4] was roughly 3 fold.

B2: Mad2-binding motif of Cdc20 (domain or fragment)
chain: EHQKAWALNLNGFDVEEAKILRLSGKPQ
modifications: Limits not printed. 111-138 is the conventional Mad2-binding fragment of human Cdc20 around the KILR motif (129-132). Check residues come from the candidate's motif feature, not from the paper.
B2: the Kd in data set [5] came out at 140 nM; in data set [6] it was 560 nM; in data set [7], 210 nM; in data set [8] it was 120 nM.

For orientation: stoichiometry N means the number of molecules, sites or subunits per partner or assembly. By Kd is commonly meant the equilibrium constant for the complex coming apart. Higher therefore signals weaker binding.
